Reference: the supplement of paper PMC7125110
± gives the standard error. Variants at the floor of the assay were thinned out.

B1: glmS ribozyme (parent)
chain: AUAAAAGCGCCAGAACUACAGAAAUGUAGUUGACGAGGAGGAGGUUUAUCGAAUUUUCGGCGGAUGCCUCCAAA

Columns and labels:
Conditions in all cases: with glucosamine-6-phosphate
glucosamine-6-phosphate [1] = variants of: B1; assay: self-cleavage kobs at 160 uM GlcN6P; higher = faster cleavage; RNA array
How it was run: (§1)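 E. coli RNA polymerase transcribed barcoded ribozyme variants in situ on sequenced MiSeq chips, which were tracked via a hybridised Cy3 probe at 37 °C. Tiles were imaged over ~14 h after glucosamine-6-phosphate (40 μM to 10 mM) in HEPES/KCl/Mg(OAc)2 buffer was flowed in. Normalised per-tile medians were fit to one- or two-exponential decays for kobs, and kcat and KM came from weighted Michaelis–Menten fits.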

glucosamine-6-phosphate [2] = variants of: B1; assay: self-cleavage kobs at 2500 uM GlcN6P; higher = faster cleavage; RNA array
How it was run: as §1

glucosamine-6-phosphate [3] = variants of: B1; assay: self-cleavage kobs at 640 uM GlcN6P; higher = faster cleavage; RNA array
How it was run: as §1

glucosamine-6-phosphate [4] = variants of: B1; assay: self-cleavage kobs at 10000 uM GlcN6P; higher = faster cleavage; RNA array
How it was run: as §1

| Variant | self-cleavage kobs at 160 uM GlcN6P (glucosamine-6-phosphate [1]) [s⁻¹] | self-cleavage kobs at 2500 uM GlcN6P (glucosamine-6-phosphate [2]) [s⁻¹] | self-cleavage kobs at 640 uM GlcN6P (glucosamine-6-phosphate [3]) [s⁻¹] | self-cleavage kobs at 10000 uM GlcN6P (glucosamine-6-phosphate [4]) [s⁻¹] |
| --- | --- | --- | --- | --- |
| U57G C68U C71U | 4.43e-05 ± 1.8e-05 | 5.05e-05 ± 2.4e-05 |  |  |
| G7A G35U | < 1e-05 |  | < 1e-05 | < 1e-05 |
| A36U G41C | < 1e-05 | < 1e-05 |  | < 1e-05 |
| A6G G35C G59A | < 1e-05 |  | < 1e-05 |  |
| G7U G13C G35U G37A | < 1e-05 | < 1e-05 |  |  |
| C34U U56C G62U C71A | < 1e-05 | < 1e-05 |  |  |
| G7A G37A A39G G40U U49A G59A | < 1e-05 | < 1e-05 |  |  |
| A12U G38C A53G U55C C67G | < 1e-05 | < 1e-05 | < 1e-05 |  |
| G9U C61U | < 1e-05 |  | < 1e-05 | < 1e-05 |
| G35A G63C | < 1e-05 | < 1e-05 | < 1e-05 |  |
| A12C G63C G66C | < 1e-05 |  | < 1e-05 |  |
| G32A U55G G59C C70G | 6.64e-05 ± 2.6e-05 | 5.89e-05 ± 2.5e-05 | 0.000174 ± 6.5e-05 |  |
| G32C A64G | < 1e-05 | 5.42e-05 ± 1.9e-05 |  |  |
| C11U U47A | 9.6e-05 ± 3.1e-05 | 0.0014 ± 0.00025 | 0.000187 ± 4.3e-05 | 0.0016 ± 0.00047 |
| A42G U54A C67A | 0.000942 ± 0.00031 | 0.00449 ± 0.0011 | 0.0023 ± 0.001 |  |
| A42U G44C A52C | < 1e-05 |  | < 1e-05 |  |
| C8A C16A U47C C58G | < 1e-05 |  | < 1e-05 |  |
| G29U A42U A48U G62A | < 1e-05 | < 1e-05 |  |  |
| G38A A39C U57A | < 1e-05 |  | < 1e-05 |  |
| A14G U57A | 4.7e-05 ± 1.1e-05 | 0.000418 ± 4.7e-05 | 0.000139 ± 2.9e-05 |  |
| A12C G41C U49A | < 1e-05 | < 1e-05 | < 1e-05 |  |
| C10U G44U C61A | < 1e-05 | < 1e-05 | < 1e-05 |  |
| C50A G63A | < 1e-05 |  |  | < 1e-05 |
| C34G A53U C68U | < 1e-05 | < 1e-05 |  |  |
| A6C G7A | < 1e-05 |  | < 1e-05 |  |
| G9A G37A A42U | < 1e-05 |  | < 1e-05 |  |

| Variant | self-cleavage kobs at 160 uM GlcN6P (glucosamine-6-phosphate [1]) [s⁻¹] | self-cleavage kobs at 2500 uM GlcN6P (glucosamine-6-phosphate [2]) [s⁻¹] | self-cleavage kobs at 640 uM GlcN6P (glucosamine-6-phosphate [3]) [s⁻¹] | self-cleavage kobs at 10000 uM GlcN6P (glucosamine-6-phosphate [4]) [s⁻¹] |
| --- | --- | --- | --- | --- |
| A33C G35C U45G A64C | < 1e-05 | < 1e-05 |  |  |
| G9U A15U A39U U69C | < 1e-05 |  | < 1e-05 |  |
| G43C C50A C58U | < 1e-05 | < 1e-05 | < 1e-05 |  |
| G9U C58G G63U | < 1e-05 | < 1e-05 |  | < 1e-05 |
| C8A G44C | < 1e-05 | < 1e-05 | < 1e-05 |  |
| G13U G43U | < 1e-05 |  | < 1e-05 | < 1e-05 |
| A6G C11A A14U G40A | < 1e-05 |  |  |  |
| C10A A12G A15G C61A | < 1e-05 |  |  |  |
| G38C G44A | < 1e-05 |  | < 1e-05 | < 1e-05 |
| A53C G63C | < 1e-05 | < 1e-05 |  | < 1e-05 |
| C8U A33G C34G A36U U65C | < 1e-05 | < 1e-05 |  |  |
| A12U G35C | < 1e-05 |  | < 1e-05 | < 1e-05 |
| G35U A64G | < 1e-05 | < 1e-05 | < 1e-05 |  |
| A42U A52C A53G | < 1e-05 |  |  |  |
| C50A U57G U65C C70G | 8.04e-05 ± 2.6e-05 | 0.000108 ± 3.5e-05 | 0.000128 ± 3.7e-05 | 3.25e-05 ± 1.6e-05 |
| U54A U56C G66A C70U | 7.54e-05 ± 1.5e-05 | 0.000395 ± 9.4e-05 | 0.000185 ± 4.1e-05 |  |
| A6C U30G | < 1e-05 |  |  |  |
| G7C C61A | < 1e-05 |  | < 1e-05 |  |
| G13C U45C U46C C68A C70G | < 1e-05 | < 1e-05 |  |  |
| G29U A52G C61G C68U U69A | 4.87e-05 ± 1.6e-05 |  | 3.32e-05 ± 1.6e-05 |  |
| G13U A36G G43A G66C C70A | < 1e-05 | < 1e-05 | < 1e-05 |  |
| C16U G38U U54C G66U C71A | < 1e-05 |  | < 1e-05 |  |
| C8U G40U A48U U65A | < 1e-05 | < 1e-05 | < 1e-05 |  |
| C50G U54A G63A | 0.000158 ± 4.4e-05 | 8.83e-05 ± 1.8e-05 | 0.000109 ± 2.9e-05 |  |
| A14U A15G G35C | < 1e-05 | < 1e-05 |  | < 1e-05 |
| G38U G60U | < 1e-05 |  | < 1e-05 |  |

| Variant | self-cleavage kobs at 160 uM GlcN6P (glucosamine-6-phosphate [1]) [s⁻¹] | self-cleavage kobs at 2500 uM GlcN6P (glucosamine-6-phosphate [2]) [s⁻¹] | self-cleavage kobs at 640 uM GlcN6P (glucosamine-6-phosphate [3]) [s⁻¹] | self-cleavage kobs at 10000 uM GlcN6P (glucosamine-6-phosphate [4]) [s⁻¹] |
| --- | --- | --- | --- | --- |
| G43C U49G | < 1e-05 | < 1e-05 | < 1e-05 | < 1e-05 |
| G32C G51A C61G | < 1e-05 |  |  |  |
| U30C U54A C68A | 7.12e-05 ± 2.1e-05 | 5.33e-05 ± 2.5e-05 |  |  |
| A42C U54G | < 1e-05 |  |  |  |
| G7U U46A C50G G60A U65G U69A | 0.000502 ± 0.00021 |  |  |  |
| A12C C16G C70U | 0.000215 ± 8.1e-05 | 0.00151 ± 0.00044 | 0.000259 ± 9.1e-05 |  |
| G35U G37C | < 1e-05 | < 1e-05 | < 1e-05 |  |
| U31C G62A | < 1e-05 | < 1e-05 | < 1e-05 | < 1e-05 |
| G41A C50A | < 1e-05 | < 1e-05 | < 1e-05 | < 1e-05 |
| C11A G38C A42C | < 1e-05 | < 1e-05 |  |  |
| C8G C16U G35U C50G C70U | 0.000117 ± 2.9e-05 | 8.04e-05 ± 1.8e-05 | 0.000187 ± 5e-05 |  |
| A6C G9A U45A | < 1e-05 |  | < 1e-05 |  |
| C8A G60U U69A | < 1e-05 |  | < 1e-05 |  |
| G35A G43A | < 1e-05 | < 1e-05 |  |  |
| A39C G43C | < 1e-05 |  | < 1e-05 | < 1e-05 |
| G29A A52C | < 1e-05 |  | < 1e-05 | < 1e-05 |
| A12U A14C G40C A42U U45G | < 1e-05 |  | < 1e-05 |  |
| A12U G44A U65G C67U | 0.000241 ± 6.5e-05 | 0.00188 ± 0.00037 | 0.000969 ± 0.00016 |  |
| C11G A12U G13U C58U C68G | 7.71e-05 ± 2.9e-05 |  | 0.000363 ± 0.00016 |  |
| A6C G7C A15U | < 1e-05 | < 1e-05 | < 1e-05 |  |
| G9U A14U U47A | < 1e-05 | < 1e-05 | < 1e-05 |  |
| G38U G40C G41C | < 1e-05 | < 1e-05 | < 1e-05 |  |
| U46G A53U U65G | 4.57e-05 ± 1.6e-05 | 0.000976 ± 0.00018 | 0.000379 ± 9.9e-05 |  |
| G43U A53C G62U | < 1e-05 | < 1e-05 |  |  |
| C61G U65A | < 1e-05 | < 1e-05 | < 1e-05 | < 1e-05 |
| C8U G35A G43U | < 1e-05 | < 1e-05 | < 1e-05 |  |

| Variant | self-cleavage kobs at 160 uM GlcN6P (glucosamine-6-phosphate [1]) [s⁻¹] | self-cleavage kobs at 2500 uM GlcN6P (glucosamine-6-phosphate [2]) [s⁻¹] | self-cleavage kobs at 640 uM GlcN6P (glucosamine-6-phosphate [3]) [s⁻¹] | self-cleavage kobs at 10000 uM GlcN6P (glucosamine-6-phosphate [4]) [s⁻¹] |
| --- | --- | --- | --- | --- |
| A6G A52G G63U | < 1e-05 | < 1e-05 | < 1e-05 |  |
| A52C C58A | < 1e-05 |  | < 1e-05 | < 1e-05 |
| C10A U30A G35U G43U | < 1e-05 |  |  |  |
| A6U C10A U30G A36G A42C U49C U65A | < 1e-05 | < 1e-05 | < 1e-05 |  |
| G66A C67A C70U | 0.000193 ± 4.7e-05 | 0.000861 ± 0.0002 | 0.000467 ± 0.0001 |  |
| A36C G51C | < 1e-05 |  |  | < 1e-05 |
| U30C G35U C58U C61A | < 1e-05 | < 1e-05 | < 1e-05 |  |
| C34U G40U C71U | < 1e-05 | < 1e-05 |  |  |
| U2C U56C | 0.000197 ± 5.4e-05 | 0.00287 ± 0.00077 | 0.000865 ± 0.00022 |  |
| C34A C61A | < 1e-05 | < 1e-05 | < 1e-05 |  |
| A6U C10G A52G U56G | < 1e-05 | < 1e-05 |  |  |
| C58G U69C | 6.56e-05 ± 2e-05 | 0.00011 ± 3.2e-05 | 0.000102 ± 3.1e-05 |  |
| G38A G44A C50U | < 1e-05 |  | < 1e-05 |  |
| G32C G44C C58U G59A U65A C71U | < 1e-05 |  |  |  |
| G9A A52U C58U C70G | < 1e-05 |  | < 1e-05 |  |
| G7C C70G | < 1e-05 | < 1e-05 | < 1e-05 |  |
| G29U G38C A39U C50A | < 1e-05 |  | < 1e-05 |  |
| U45C A53U U69C | 9.96e-05 ± 2.7e-05 | 0.000752 ± 0.00022 | 0.000489 ± 0.00012 |  |
| C11A A53C C67G | < 1e-05 |  | < 1e-05 |  |
| G7A U31C G60U | < 1e-05 | < 1e-05 |  |  |
| G9A G41A | < 1e-05 | < 1e-05 | < 1e-05 | < 1e-05 |
| G41U G63A C71U | < 1e-05 |  |  |  |
| A15G A36U C50A G60A | < 1e-05 |  | < 1e-05 |  |
